Reference: US20250206841A1 (ADEPT THERAPEUTICS, published 2025)

Columns and labels:
human Trop-2-His protein [1] = target: T1, human Trop-2-His protein (human, UniProt P09758 27-274); assay: ELISA, coated Trop-2 protein
T1 construct: extracellular domain; Assay paragraphs say only 'Trop-2-His'; also called hTrop-2; Kactus Cat #TRP-HM121; not shown: His tag
T1 sequence (looked up): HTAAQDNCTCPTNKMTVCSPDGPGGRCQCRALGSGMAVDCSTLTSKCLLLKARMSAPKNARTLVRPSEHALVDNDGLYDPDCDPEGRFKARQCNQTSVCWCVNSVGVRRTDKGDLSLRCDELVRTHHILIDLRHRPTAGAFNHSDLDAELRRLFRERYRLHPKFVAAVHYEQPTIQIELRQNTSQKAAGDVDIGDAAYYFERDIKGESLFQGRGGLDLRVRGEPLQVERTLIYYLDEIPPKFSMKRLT
Procedure: Purified antibodies were tested by ELISA to confirm their binding and affinity against human and cynomolgus Trop-2-His protein. Briefly, 96-well Maxisorp plates (Nunc) were coated with 100 μl/well of 0.5 μg/ml human (Kactus Cat #TRP-HM121, or Sino Biological, Cat #10428-HO8H) or cynomolgus Trop-2 protein (Kactus Cat #TRP-CM121, or Sino Biological, Cat #90893-CO8H) diluted in 1×PBS (GIBCO) overnight at 4° C. Plates were washed four times with 300 μl/well washing buffer (1×PBST, diluted from 20×PBST (Thermo Scientific) with distilled water)) and then blocked with 300 μl/well of blocking buffer (1×PBST/3% BSA (BSA, Sigma)) for 2 hours at RT on plate shaker at 100 rpm. Plates were washed and added with 100 μl/well of testing antibodies, which were serial diluted with assay buffer (PBST/1% BSA). The antibodies were incubated at room temperature for 2 hours on plate shaker at 100 rpm. Plates were washed. One hundred microliters (100 μl) of 1:10,000 diluted horseradish peroxidase (HRP) conjugated anti-hIgG antibody (Jackson Immuno Research) was added into each well and incubated at room temperature for 1 hour on plate shaker at 100 rpm. Plates were washed and added with 100 μl/well TMB substrate for color development in dark at room temperature for up to 10 minutes. After addition of 50 μl/well of stop solution (1N H₂SO₄), plates were read at 450 nm on a plate reader (SpectraMax M5). EC₅₀ values were calculated using Graphpad Prism. Sacituzumab govitecan, was used as positive control. Anti-HEL.hIgG1 was used as isotype control.

[2] = target: T2, human Trop-2 expressed on cell surface (human, UniProt P09758 27-323); assay: flow cytometry, MCF-7 cells
T2 sequence (looked up): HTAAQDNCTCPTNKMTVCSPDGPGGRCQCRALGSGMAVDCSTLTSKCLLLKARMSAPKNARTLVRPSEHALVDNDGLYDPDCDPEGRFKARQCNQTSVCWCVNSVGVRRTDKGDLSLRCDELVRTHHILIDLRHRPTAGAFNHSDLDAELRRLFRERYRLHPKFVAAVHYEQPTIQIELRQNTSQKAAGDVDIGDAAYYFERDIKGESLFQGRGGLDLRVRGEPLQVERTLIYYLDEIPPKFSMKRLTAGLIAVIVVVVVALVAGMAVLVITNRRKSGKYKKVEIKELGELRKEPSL
Procedure: (§1) Cells were then resuspended in FACS buffer (1×DPBS/1% FBS) at 10⁶/ml concentration. One hundred microliter (100 μl) of cells were aliquoted into a single well in 96 well plates. The antibodies to be tested were serially diluted at 1:3 fold starting at 15 μg/mL and were then added into each well. The antibodies were mixed with cells and the mixtures were incubated on ice for 1 hour. After washing with FACS buffer, one hundred microliter (100 μl) of 1:400 diluted PE-conjugated anti-human Fc secondary antibody (Jackson Immuno Research) was added into each well and incubated for 30 minutes on ice. After washing with FACS buffer, stained cells were resuspended at diluted 7-ADD (Biolegend, used at 1:100 dilution) and analyzed on Guava 11HT or 5HT (Luminex). Data was analyzed using Flowjo software. EC₅₀ values were calculated using GraphPad Prism. Sacitnzurnab govitecan was used as positive control. Anti-HEL.hIgG1 was used as isotype negative control. Similar assay was performed using MCF-7 cells (known to express human Trop-2).

human Trop-2-His protein [3] = target: T1, human Trop-2-His protein; assay: BLI (Gator Plus), Ab on HFC probe
[4] = target: cynomolgus Trop-2-His protein (cynomolgus); assay: ELISA, coated Trop-2 protein
[5] = target: cynomolgus Trop-2-His protein (cynomolgus); assay: BLI (Gator Prime), positive control at 1 µg/ml on HFC probe; second line of values
human Trop-2-His protein [6] = target: T1, human Trop-2-His protein; assay: as above
[7] = target: cynomolgus Trop-2-His protein (cynomolgus); assay: BLI (Gator Prime), positive control at 1 µg/ml on HFC probe
human Trop-2-His protein [8] = target: T1, human Trop-2-His protein; assay: as above
[9] = target: T2, human Trop-2 expressed on cell surface; assay: cell-based or functional assay
[10] = target: T2, human Trop-2 expressed on cell surface; assay: flow cytometry, MDA-MB-231-GFP cells
Procedure: as §1

B1: Sacituzumab govitecan (antibody, INN chains, looked up, V domains shown)
VH: QVQLQQSGSELKKPGASVKVSCKASGYTFTNYGMNWVKQAPGQGLKWMGWINTYTGEPTYTDDFKGRFAFSLDTSVSTAYLQISSLKADDTAVYFCARGGFGSSYWYFDVWGQGSLVTVSS
VL: DIQLTQSPSSLSASVGDRVSITCKASQDVSIAVAWYQQKPGKAPKLLIYSASYRYTGVPDRFSGSGSGTDFTLTISSLQPEDFAVYYCQQHYITPLTFGAGTKVEIKR
modifications: SN-38 payload (govitecan)
Q: Which results are given for B1?
A: EC50 (human Trop-2-His protein [1]): 0.014 nM; EC50 [2]: 2.2 nM; kon (human Trop-2-His protein [3]): 239000 M⁻¹ s⁻¹; EC50 [4]: 0.017 nM; Kd [5]: 0.772 nM; koff [5]: 0.00025 s⁻¹; kon [5]: 326000 M⁻¹ s⁻¹; Kd (human Trop-2-His protein [6]): 0.497 nM; koff (human Trop-2-His protein [6]): 0.00014 s⁻¹; kon (human Trop-2-His protein [6]): 281000 M⁻¹ s⁻¹; Kd [7]: 0.614 nM; koff [7]: 0.00022 s⁻¹; kon [7]: 405000 M⁻¹ s⁻¹; Kd (human Trop-2-His protein [8]): 0.755 nM; koff (human Trop-2-His protein [8]): 0.00022 s⁻¹; kon (human Trop-2-His protein [8]): 285000 M⁻¹ s⁻¹; EC50 of ADCC (NFAT-CD16 reporter), MCF-7; average from 3 plates [9]: 2.72 nM; EC50 of ADCC (NFAT-CD16 reporter), MDA-MB-231; average from 3 plates [9]: 0.55 nM; Internalization %, MCF-7, 0.25 µg/ml, 1 h [9]: 30%; Internalization %, MCF-7, 0.25 µg/ml, 2 h [9]: 43%; Internalization %, MCF-7, 0.25 µg/ml, 4 h [9]: 44%; Internalization %, MCF-7, 0.5 µg/ml, 1 h [9]: -4%; Internalization %, MCF-7, 0.5 µg/ml, 2 h [9]: 41%; Internalization %, MCF-7, 0.5 µg/ml, 4 h [9]: 55%; Internalization %, MDA-MB-231, 0.25 µg/ml, 2 h [9]: 41%; Internalization %, MDA-MB-231, 0.25 µg/ml, 4 h [9]: 46%; Internalization %, MDA-MB-231, 0.5 µg/ml, 2 h [9]: 42%; Internalization %, MDA-MB-231, 0.5 µg/ml, 4 h [9]: 45%; Internalization %, MDA-MB-231, 1 µg/ml, 2 h [9]: 43%; Internalization %, MDA-MB-231, 1 µg/ml, 4 h [9]: 49%; Internalization %, MDA-MB-231, 2 µg/ml, 2 h [9]: 43%; Internalization %, MDA-MB-231, 2 µg/ml, 4 h [9]: 48%; EC50 [10]: 0.09 nM
